Data: article PMC2685113

Biological target: streptavidin (UniProt P22629 25-183)
Test: EMSA

Chain of streptavidin (P22629 25-183): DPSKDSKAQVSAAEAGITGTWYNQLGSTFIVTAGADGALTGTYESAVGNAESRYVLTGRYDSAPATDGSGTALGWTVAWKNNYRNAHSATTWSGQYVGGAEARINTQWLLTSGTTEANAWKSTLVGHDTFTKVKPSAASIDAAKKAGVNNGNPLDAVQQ

B1: S1-77 (structured_RNA)
RNA: GGGCCAUCGAUGCGGCCGCCGACCAGAAUCAUGCAAGUGCGUAAGAUAGUCGCGGGUCGGCGGCCGCAUCGAUGGCC
B1: binds.
